Laboratory results taken from patent publication US11634497B2, “Anti-CCR7 antibody drug conjugates” (NOVARTIS AG, priority 2017, dated 2023).

Legend:
Format in all cases: cell-based
[1] = molecular target: T1, hCCR7 (CHO-flpin-hCCR7 cells) (Homo sapiens, UniProt P32248); test: β-Arrestin assay (PathHunter), antagonistic mode; details: parental anti-CCR7 antibodies; hCCL19 as ligand; FIGS. 4B, 4C
T1 construct: host or cells: CHO (CHO-flpin), doxycycline-induced
T1 sequence (P32248 25-378): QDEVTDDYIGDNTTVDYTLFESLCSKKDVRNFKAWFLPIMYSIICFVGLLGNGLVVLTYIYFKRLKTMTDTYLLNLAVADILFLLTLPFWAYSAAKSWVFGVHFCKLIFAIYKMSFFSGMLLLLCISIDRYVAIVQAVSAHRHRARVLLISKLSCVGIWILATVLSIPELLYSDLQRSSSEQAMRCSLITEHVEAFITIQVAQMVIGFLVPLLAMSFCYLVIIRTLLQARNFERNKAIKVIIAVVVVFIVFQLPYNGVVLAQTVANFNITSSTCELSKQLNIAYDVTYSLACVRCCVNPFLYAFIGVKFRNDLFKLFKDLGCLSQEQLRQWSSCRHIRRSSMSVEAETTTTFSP
Protocol: To determine functionality of the anti-CCR7 antibodies, the β-Arrestin assay was performed using the PathHunter Flash Detection Kit from DiscoverX (#93-0247) either in agonistic mode for assessment of agonistic function or antagonistic mode for assessment of antagonistic function.
In the antagonistic mode, CHO-flpin-hCCR7 cells were seeded as described above. The next day, a 6× working solution (0.5 μM×6=3.0 μM) in 1× assay buffer was made for each test antibody or positive control MAB197 (R&D reference antibody; ligand antagonist) or negative control hIgG. 5 μl of the 6× working solution of antibodies or controls were added to each well, briefly spun down, and incubated at 37° C./5% CO2 for 30 min. During incubation, serial dilutions of a 6× working solution in 1× assay buffer were made for hCCL19. Following incubation, 5 μl of the 6× working solution of hCCL19 were added to each well, briefly spun down, and incubated at 37° C./5% CO2 for 90 min. Following incubation, 25 μl of detection reagent were added to each well, incubated at room temperature in the dark while shaking for 20 min. Then, the luminescence signal for enzyme activity was measured on the Envision machine and analyzed in Excel.

[2] = test system: CCR7 and CD20 expressing JVM2 cells; test: surrogate ADCC reporter assay; details: JVM2 target cells and Jurkat-V158 effector cells
Protocol: Capacity of candidate antibodies to mediate ADCC was assessed using a surrogate ADCC reporter assay. CCR7 and CD20 expressing JVM2 cells were used as target cells. JVM2 cells were washed and re-suspended at 8×10^4 cells/ml cells/ml. Effector cells in this assay were a Jurkat cell line stably expressing CD16V158 and an NFAT dependent luciferase reporter (Jurkat-V158); expression of luciferase is a surrogate for canonical ADCC signaling through CD16. Briefly, Jurkat-V158 cells grown in suspension were spun down to remove spent media, the pellet was resuspended in assay media and adjusted to 1.6x10^6 cells/ml cells/mL. Mix equal volumes of effector and target cells to make a master mix of cells yielding a target to effector cell ratio of 1:5 or 1:20. A titration of antibody was diluted in assay media with a final top concentration of 50 ug/mL in the assay well. 12.5 uL of Ab solution was added to a 384 well round bottom plate and then 12.5 ul of the master cell mix was added. Antibody and cells were mixed well by pipetting and incubated for 4 hours at 37° C. in 5% CO2. Following incubation, 15 uL of Bright Glo substrate (Promega #G7572) was added to each well and shaken for 5 min at RT at 1050 rpm. Luminescent signal was read on the Envision plate reader (Perkin Elmer).

DEL = test: ADC cell viability assay (CellTiter-Glo, four days); details: DEL (ALCL); CCR7 receptor levels ~100,000; Table 19
Protocol: (§1) Cytotoxic effects after binding of directly conjugated antibodies (ADCs) with various payloads and their internalization into CCR7(+) cells were studied by assessing cell viability after four days of treatment. Three fold dilutions of the ADCs were added to 384-well bottom white plates in triplicates ([…]). […] Cells were harvested (adherent cells were detached with Accutase) and resuspended to approximately 2×10^4cells/ml. Cells were added to 384-well plates on top of the antibody (20 μl/well). The plates were incubated for four days at 37° C. and 5% CO2. Subsequently, 20 μl/well of CellTiter-Glo solution (CellTiter-Glo® Luminescent Cell Viability Assay; Promega, #G7571) was prepared and added to the cells. Cell viability was determined by the luminescence signal, which was measured after 10 min of incubation at 22° C. and 400 rpm with the Envision reader. IC50 values were calculated using the Graphpad Prism software.

KE97 = test: as above; details: KE97 (Multiple Myeloma); CCR7 receptor levels ~100,000; Table 19
Protocol: as §1

CML-T1 = test: as above; details: CML-T1 (T cell leukemia); CCR7 receptor levels ~29,000
Protocol: as §1
(§2) To assess the ADCs for target-specificity and receptor-level dependency, ADC activity was tested across cell lines with different CCR7 receptor levels. […] Cell lines were chosen based on similar sensitivity to payload.

DND-41 = test: as above; details: DND-41 (T cell leukemia); CCR7 receptor levels 1,700
Protocol: as §1, §2

SR786 = test: as above; details: SR786 (Anaplastic large T cell lymphoma); CCR7 receptor levels ~28,000
Protocol: as §1, §2

B1: 674J13 Parental: parental anti-CCR7 antibody derived from the hybridoma (antibody, V domains shown)
VH: DVQLQESGPDLVKPSQSLSLTCTVTGYSITSGYSWHWIRQFPGNKLEWMAHIHSSGSTNYNPSLKSRISIIRDTSKNLFFLQLNSVTTEDTATYYCARGGVQAFAYWGQGTLVTVSA
VL: QIVLTQSPAIMSASPGEKVTMTCSASSSVIYMHWYQQKSGTSPKRWIYDTSKLASGVPARFSGSGSGTSYSLTISSMEAEDAATYYCQQWSSNPLTFGAGTTLELK
[1]
  functionality in β-Arrestin assay, antagonistic format: neutral, non-ligand blocking antibody

B2: 121G12 humanized CysMab: humanized anti-CCR7 IgG1 antibody with cysteine mutations, wild type Fc (antibody, V domains shown)
VH: EVQLVESGGGLVKPGGSLRLSCAASGFTFSTYAMSWVRQAPGKGLEWVATISDAGSYSYYPDNVKGRFTISRDNAKNSLYLQMNSLRAEDTAVYYCARRGSRYEEYYVMDYWGQGTTVTVSS
VL: EIVLTQSPATLSVSPGERVTLSCRASQSISNNLHWYQQKPGQAPRLLIKYASQSISGIPARFSGSGSGTDFTLTISSVEPEDFGVYFCQQSSSWLTFGQGTKLEIK
[2]
  ADCC activity; IC50 (nM): Yes, but insufficient curve fitting

B3: 674J13.CysMab.DAPA.AURIX2 (conjugate)
heavy: DVQLQESGPGLVKPSQTLSLTCTVSGYSITSGYSWHWIRQHPGKGLEWMAHIHSSGSTNYNPSLKSRITISRDTSKNQFSLKLSSVTAADTAVYYCARGGVQAFAYWGQGTLVTVSSASTKGPSVFPLAPSSKSTSGGTAALGCLVKDYFPCPVTVSWNSGALTSGVHTFPAVLQSSGLYSLSSVVTVPSSSLGTQTYICNVNHKPSNTKVDKRVEPKSCDKTHTCPPCPAPELLGGPSVFLFPPKPKDTLMISRTPEVTCVVVAVSHEDPEVKFNWYVDGVEVHNAKTKPREEQYNSTYRVVSVLTVLHQDWLNGKEYKCKVSNKALAAPIEKTISKAKGQPREPQVYTLPPSREEMTKNQVSLTCLVKGFYPCDIAVEWESNGQPENNYKTTPPVLDSDGSFFLYSKLTVDKSRWQQGNVFSCSVMHEALHNHYTQKSLSLSPGK
light: EIVLTQSPATLSASPGERVTMSCSASSSVIYMHWYQQKPGQAPRRWIYDTSKLASGVPARFSGSGSGTDYTLTISSMEPEDAAVYYCQQWSSNPLTFGQGTKLEIKRTVAAPSVFIFPPSDEQLKSGTASVVCLLNNFYPREAKVQWKVDNALQSGNSQESVTEQDSKDSTYSLSSTLTLSKADYEKHKVYACEVTHQGLSSPVTKSFNRGEC
DEL
  AMAX: (>95% AMAX)
KE97
  AMAX: (>95% AMAX)
CML-T1
  AMAX: (60% AMAX)
DND-41
  AMAX: <20% AMAX
SR786
  AMAX: (90% AMAX)
